In patent publication US20110129481A1 one finds absorption data, which are given here for 1 substance.

Test [1] addresses mouse c-Met/Fc fusion protein (R&D Systems, Inc.) (mouse) (UniProt P16056). Briefly: ELISA, plate-bound c-Met/Fc (2 ug/ml), anti-mouse IgG-HRP. On the technique in general: In an ELISA, binding on a coated surface is turned into a signal by an enzyme label.
Test [2] concerns the target human c-Met/Fc fusion protein (R&D Systems, Inc.) (human) (UniProt P08581). The test is described as above.
Chain of UniProt P08581 (P08581 25-932 limits assumed): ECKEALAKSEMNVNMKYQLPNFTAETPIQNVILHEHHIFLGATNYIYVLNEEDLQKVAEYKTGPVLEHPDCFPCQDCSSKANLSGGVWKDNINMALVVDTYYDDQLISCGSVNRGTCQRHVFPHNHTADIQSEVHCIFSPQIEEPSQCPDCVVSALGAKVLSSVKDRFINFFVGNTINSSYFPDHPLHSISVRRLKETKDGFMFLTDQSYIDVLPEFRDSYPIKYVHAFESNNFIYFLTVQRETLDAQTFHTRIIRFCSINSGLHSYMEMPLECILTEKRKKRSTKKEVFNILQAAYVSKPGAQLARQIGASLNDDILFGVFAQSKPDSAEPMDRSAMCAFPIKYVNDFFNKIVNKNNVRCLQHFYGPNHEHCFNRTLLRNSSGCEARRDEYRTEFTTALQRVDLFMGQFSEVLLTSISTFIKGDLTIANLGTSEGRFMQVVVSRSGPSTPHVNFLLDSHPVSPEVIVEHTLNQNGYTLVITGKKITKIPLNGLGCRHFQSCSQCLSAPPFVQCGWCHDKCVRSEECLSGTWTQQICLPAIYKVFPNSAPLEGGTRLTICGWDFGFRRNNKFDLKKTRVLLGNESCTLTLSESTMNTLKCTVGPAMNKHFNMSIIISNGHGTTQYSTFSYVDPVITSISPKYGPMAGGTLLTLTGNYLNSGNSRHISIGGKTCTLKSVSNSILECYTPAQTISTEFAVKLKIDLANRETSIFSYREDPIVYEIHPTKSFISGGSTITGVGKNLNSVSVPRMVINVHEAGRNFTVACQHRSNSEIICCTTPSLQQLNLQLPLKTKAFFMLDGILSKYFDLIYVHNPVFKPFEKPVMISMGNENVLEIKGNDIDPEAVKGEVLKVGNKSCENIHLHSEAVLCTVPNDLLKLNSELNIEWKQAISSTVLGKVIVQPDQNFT

Chain of UniProt P16056 (P16056 25-931 limits assumed): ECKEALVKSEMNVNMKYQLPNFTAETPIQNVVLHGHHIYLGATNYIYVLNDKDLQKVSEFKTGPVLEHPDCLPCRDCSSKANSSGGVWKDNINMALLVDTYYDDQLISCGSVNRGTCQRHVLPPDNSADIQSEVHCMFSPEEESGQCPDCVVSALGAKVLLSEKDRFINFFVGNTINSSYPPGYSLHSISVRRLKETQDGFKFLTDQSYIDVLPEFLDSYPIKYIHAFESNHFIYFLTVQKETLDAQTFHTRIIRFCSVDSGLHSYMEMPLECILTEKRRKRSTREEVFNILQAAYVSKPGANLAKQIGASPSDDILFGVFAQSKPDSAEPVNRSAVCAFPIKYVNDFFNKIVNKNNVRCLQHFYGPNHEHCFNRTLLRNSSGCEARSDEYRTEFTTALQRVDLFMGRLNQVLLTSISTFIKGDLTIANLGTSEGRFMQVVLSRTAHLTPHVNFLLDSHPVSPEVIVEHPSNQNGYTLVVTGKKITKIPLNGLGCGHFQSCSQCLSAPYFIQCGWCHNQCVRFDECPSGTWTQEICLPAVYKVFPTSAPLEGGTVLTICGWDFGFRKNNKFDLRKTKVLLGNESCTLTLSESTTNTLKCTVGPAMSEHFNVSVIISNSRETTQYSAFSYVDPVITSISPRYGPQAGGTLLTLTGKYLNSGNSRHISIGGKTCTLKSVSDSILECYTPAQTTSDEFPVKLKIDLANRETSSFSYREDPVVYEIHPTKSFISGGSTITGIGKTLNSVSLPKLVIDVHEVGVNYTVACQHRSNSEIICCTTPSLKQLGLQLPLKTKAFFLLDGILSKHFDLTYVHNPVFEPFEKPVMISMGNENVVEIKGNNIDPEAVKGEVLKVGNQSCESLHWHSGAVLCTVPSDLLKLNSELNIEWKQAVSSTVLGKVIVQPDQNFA

For the substance “monoclonal antibody against human c-Met, 5D5 (Genetech)”, the absorption at 450 nm in test [1] was found to be 0.113; in test [2] it was 0.373.
